Laboratory results published in IntAct's records for PubMed 29039417.

B1: BBSome complex member BBS2 (Homo sapiens), Q9BXC9 (parent)
chain: MLLPVFTLKLRHKISPRMVAIGRYDGTHPCLAAATQTGKVFIHNPHTRNQHVSASRVFQSPLESDVSLLSINQAVSCLTAGVLNPELGYDALLVGTQTNLLAYDVYNNSDLFYREVADGANAIVLGTLGDISSPLAIIGGNCALQGFNHEGSDLFWTVTGDNVNSLALCDFDGDGKKELLVGSEDFDIRVFKEDEIVAEMTETEIVTSLCPMYGSRFGYALSNGTVGVYDKTSRYWRIKSKNHAMSIHAFDLNSDGVNELITGWSNGKVDARSDRTGEVIFKDNFSSAIAGVVEGDYRMDGHIQLICCSVDGEIRGYLPGTAEMRGNLMDTSAEQDLIRELSQKKQNLLLELRNYEENAKAELASPLNEADGHRGIIPANTRLHTTLSVSLGNETQTAHTELRISTSNDTIIRAVLIFAEGIFTGESHVVHPSIHNLSSSICIPIVPPKDVPVDLHLKAFVGYRSSTQFHVFESTRQLPRFSMYALTSLDPASEPISYVNFTIAERAQRVVVWLGQNFLLPEDTHIQNAPFQVCFTSLRNGGHLHIKIKLSGEITINTDDIDLAGDIIQSMASFFAIEDLQVEADFPVYFEELRKVLVKVDEYHSVHQKLSADMADHSNLIRSLLVGAEDARLMRDMKTMKSRYMELYDLNRDLLNGYKIRCNNHTELLGNLKAVNQAIQRAGRLRVGKPKNQVITACRDAIRSNNINTLFKIMRVGTASS
partner: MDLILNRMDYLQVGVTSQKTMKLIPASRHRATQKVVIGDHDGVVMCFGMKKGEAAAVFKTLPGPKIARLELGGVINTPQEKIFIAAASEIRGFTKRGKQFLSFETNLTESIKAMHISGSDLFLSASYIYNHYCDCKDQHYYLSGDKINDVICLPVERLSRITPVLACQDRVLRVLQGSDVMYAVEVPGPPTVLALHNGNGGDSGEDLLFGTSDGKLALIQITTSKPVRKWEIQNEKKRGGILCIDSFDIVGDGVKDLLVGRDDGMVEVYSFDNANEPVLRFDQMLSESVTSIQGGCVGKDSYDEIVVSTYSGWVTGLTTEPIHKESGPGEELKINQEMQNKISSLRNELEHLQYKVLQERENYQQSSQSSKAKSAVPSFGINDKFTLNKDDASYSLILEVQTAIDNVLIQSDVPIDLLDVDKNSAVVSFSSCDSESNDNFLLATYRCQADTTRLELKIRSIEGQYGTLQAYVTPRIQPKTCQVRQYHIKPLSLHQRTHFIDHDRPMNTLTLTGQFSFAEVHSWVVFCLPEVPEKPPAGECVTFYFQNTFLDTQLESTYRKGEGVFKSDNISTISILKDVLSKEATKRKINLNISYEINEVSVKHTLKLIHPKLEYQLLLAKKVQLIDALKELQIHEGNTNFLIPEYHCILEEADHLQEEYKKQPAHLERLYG

Variants of: B1
Conditions: with BBS7, Q8IWZ6-2

Effect of a mutation on the interaction, with no effect:
L655K
L655E
L655A
C662E
C662A
C662K
G670E
G670K
G670A
L669K
L669A
L669E
T666A
T666K
T666E
G683A
G683K
G683E
Y648E
Y648A
Y648K
R684E
R684A
R684K
L668K
L668A
L668E
R686K
R643K
R643E
R643A
L672K
L672E
L672A
H665A
H665K
H665E
A678K
A678E
D649A
D649E
D649K
L654A
L654E
L654K
K673E
K673A
E629A
E629K
V687E
V687K
V687A
R652A
R652K
R652E
D636A
D636E
S642A
S642K
S642E
L633K
L633E
L633A
A682K
A682E
K659A
K659E
E667A
E667K
N664E
N664A
N664K
N676E
N676K
N676A
Q680A
Q680E
Q680K
Q677A
Q677E
Q677K
M640K
M640E
M640A
I660A
I660K
I660E
D630K
D630A
D630E
R661K
R661E
R661A
Y644A
Y644K
N671A
N671K
A674K
A674E
A631K
A631E
N656A
N656E
N656K
Y658A
Y658K
Y658E
M637E
M637K
M637A
L685K
R681E
R681K
R681A
V675K
V675A
V675E
R635E
R635A
R635K
N651A
N651K
N651E
D653K
D653A
D653E
K641A
K641E
G657A
G657E
G657K
M634K
M634E
M634A
L650E
L650A
L650K
N663K
N663A
N663E
K638A
K638E
R632K
R632A
R632E
M645A
M645K
M645E
E646K
E646A
T639E
T639K
T639A
L647K

Effect of a mutation on the interaction, disrupting interaction strength:
G670C
R686A
R686E
G688A
G688E
G688R
G688K
D636K
D636G
I679L
I679K
I679A
I679E
N676T
Y644E
N671E
M637S
L685A
L685E
R635C
L647A
L647E
